Test [1] has as its target T1, Ubl45^ΔC (tailless Ubl45) (UniProt Q93009 890-1082).
T1 construct: USP7 Ubl45 without the C-terminal tail: stop codon introduced at residue 1083; start 890 as told for Ubl45; also called tailless construct; source: E. coli BL21, purified (Glutathione Sepharose, 3C cleavage, anion exchange, gel filtration)
Briefly: SPR; GST-USP7CD captured by anti-GST antibody on CM5 chip, Ubl45 or Ubl45ΔC flowed over; Biacore T200, 25 °C; 20 mM HEPES pH 7.5, 100 mM NaCl, 1 mM DTT, 1 mM EDTA, 0.05% Tween-20, 1 mg/mL BSA, 1 mg/mL dextran; equilibrium fit 1:1, extrapolated. To be noted: both partners purified.

Test [2] has as its target T2, USP7 Ubl45 (last two Ubl domains with the activating C-terminal tail) (UniProt Q93009 890-1102).
T2 construct: USP7 Ubl domains 4 and 5 with the C-terminal tail, residues 890-1102 (25 kDa); source: E. coli BL21, purified (Glutathione Sepharose, 3C cleavage, anion exchange, gel filtration); 15N-labelled in M9 minimal medium for NMR
Described as above. The note with it: both partners purified.

T1 sequence (Q93009 890-1082, stated change not applied): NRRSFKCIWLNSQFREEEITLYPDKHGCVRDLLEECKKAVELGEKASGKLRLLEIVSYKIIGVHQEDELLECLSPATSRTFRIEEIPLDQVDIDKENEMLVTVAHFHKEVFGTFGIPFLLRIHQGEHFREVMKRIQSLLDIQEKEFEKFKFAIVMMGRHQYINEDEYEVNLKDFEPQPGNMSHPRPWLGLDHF
T2 sequence (Q93009 890-1102): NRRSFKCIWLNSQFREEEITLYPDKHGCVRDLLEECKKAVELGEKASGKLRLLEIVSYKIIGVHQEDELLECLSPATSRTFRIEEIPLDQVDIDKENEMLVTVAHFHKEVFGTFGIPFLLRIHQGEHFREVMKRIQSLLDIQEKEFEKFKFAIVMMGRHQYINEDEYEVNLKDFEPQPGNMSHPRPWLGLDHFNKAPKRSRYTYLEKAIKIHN

B1: GST-USP7CD (domain or fragment)
chain: KKHTGYVGLKNQGATCYMNSLLQTLFFTNQLRKAVYMMPTEGDDSSKSVPLALQRVFYELQHSDKPVGTKKLTKSFGWETLDSFMQHDVQELCRVLLDNVENKMKGTCVEGTIPKLFRGKMVSYIQCKEVDYRSDRREDYYDIQLSIKGKKNIFESFVDYVAVEQLDGDNKYDAGEHGLQEAEKGVKFLTLPPVLHLQLMRFMYDPQTDQNIKINDRFEFPEQLPLDEFLQKTDPKDPANYILHAVLVHSGDNHGGHYVVYLNPKGDGKWCKFDDDVVSRCTKEEAIEHNYGGHDDDLSVRHCTNAYMLVYIRESKLSEVLQAVTDHDIPQQLVERLQEEKRIEAQKRKERQE
modifications: GST tag (used for chip immobilisation) left out; limits 208-560 are the usual USP7 CD construct limits, not printed in the text (consistent with the stated 42 kDa)
B1: the dissociation constant (Kd) in test [1] is 420 µM; in test [2], approximately 280 µM.

Usually Kd stands for the concentration at which binding is half-saturated.
